Test results taken from patent US20140079716A1 (Biogen, published 2014).

T1: Soluble Flag-tagged LTα1β2 (UniProt P01374 35-205, limits assumed)
T1 construct: Biacore ligand captured on the anti-Flag antibody M2; the whole LTβ entry is named here; also called Ligand
T1 sequence 1: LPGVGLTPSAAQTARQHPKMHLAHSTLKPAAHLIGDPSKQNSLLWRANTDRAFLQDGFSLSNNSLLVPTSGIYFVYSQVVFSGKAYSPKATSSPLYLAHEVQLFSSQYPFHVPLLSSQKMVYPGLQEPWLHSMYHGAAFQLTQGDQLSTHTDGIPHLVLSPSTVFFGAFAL
T1 sequence 2: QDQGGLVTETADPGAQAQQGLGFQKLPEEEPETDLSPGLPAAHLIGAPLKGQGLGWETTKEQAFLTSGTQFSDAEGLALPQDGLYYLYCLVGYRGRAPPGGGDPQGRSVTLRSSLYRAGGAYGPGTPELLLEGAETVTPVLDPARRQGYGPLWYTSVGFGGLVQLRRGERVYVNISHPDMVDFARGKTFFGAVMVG

T2: soluble recombinant human lymphotoxin α1β2 (human, UniProt P01374 35-205, limits assumed)
T2 sequence 1: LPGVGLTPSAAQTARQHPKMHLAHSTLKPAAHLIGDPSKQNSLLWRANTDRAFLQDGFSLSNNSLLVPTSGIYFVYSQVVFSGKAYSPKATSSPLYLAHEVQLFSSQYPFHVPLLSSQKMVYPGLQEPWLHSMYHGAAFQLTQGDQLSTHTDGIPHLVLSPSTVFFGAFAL
T2 sequence 2: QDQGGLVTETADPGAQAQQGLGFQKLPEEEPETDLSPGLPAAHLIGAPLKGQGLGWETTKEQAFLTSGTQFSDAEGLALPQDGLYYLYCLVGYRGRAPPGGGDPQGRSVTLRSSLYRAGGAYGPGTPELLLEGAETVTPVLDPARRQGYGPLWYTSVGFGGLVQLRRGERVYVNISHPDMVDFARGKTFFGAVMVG

T3: LTα3 (soluble homotrimer) (UniProt P01374 35-205)
T3 construct: Coated on ELISA plates at 1 or 5 ug/ml; also called LTa3
T3 sequence (looked up): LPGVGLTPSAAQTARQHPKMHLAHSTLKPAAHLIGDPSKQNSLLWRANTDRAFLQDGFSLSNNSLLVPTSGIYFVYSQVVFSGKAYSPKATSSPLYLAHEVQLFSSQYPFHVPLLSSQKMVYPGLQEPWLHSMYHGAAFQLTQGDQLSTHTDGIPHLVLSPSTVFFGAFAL

T4: LTα1β2 on the surface of PMA-treated II-23 cells (UniProt P01374 35-205, limits assumed)
T4 construct: whole, on cells; also called surface LT
T4 sequence 1: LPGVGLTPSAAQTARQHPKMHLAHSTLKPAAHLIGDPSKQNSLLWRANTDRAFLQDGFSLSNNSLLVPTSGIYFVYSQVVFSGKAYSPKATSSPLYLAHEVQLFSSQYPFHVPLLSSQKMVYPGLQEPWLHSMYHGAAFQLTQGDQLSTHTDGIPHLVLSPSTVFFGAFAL
T4 sequence 2: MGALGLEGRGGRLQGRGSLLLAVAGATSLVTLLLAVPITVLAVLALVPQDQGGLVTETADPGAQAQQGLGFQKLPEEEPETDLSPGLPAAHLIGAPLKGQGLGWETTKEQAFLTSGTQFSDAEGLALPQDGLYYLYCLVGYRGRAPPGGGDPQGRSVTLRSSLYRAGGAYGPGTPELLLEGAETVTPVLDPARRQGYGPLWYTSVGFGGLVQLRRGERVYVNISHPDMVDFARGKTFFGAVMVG

T5: human LT (human, UniProt P01374 35-205, limits assumed)
T5 construct: also called human LTα1β2
T5 sequence 1: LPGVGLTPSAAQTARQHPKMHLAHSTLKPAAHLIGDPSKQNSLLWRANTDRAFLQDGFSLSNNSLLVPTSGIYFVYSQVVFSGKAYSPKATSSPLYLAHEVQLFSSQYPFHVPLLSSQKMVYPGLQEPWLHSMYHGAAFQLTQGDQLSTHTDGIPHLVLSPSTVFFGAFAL
T5 sequence 2: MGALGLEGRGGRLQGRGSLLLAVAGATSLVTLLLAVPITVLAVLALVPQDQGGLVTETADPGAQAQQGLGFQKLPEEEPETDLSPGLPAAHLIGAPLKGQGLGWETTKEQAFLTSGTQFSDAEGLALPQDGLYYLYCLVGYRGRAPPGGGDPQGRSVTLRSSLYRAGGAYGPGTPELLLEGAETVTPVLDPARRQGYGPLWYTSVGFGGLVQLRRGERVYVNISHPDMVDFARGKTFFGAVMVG

B1: monomeric LTβR (receptor, UniProt P36941 31-227, looked up)
chain: QAVPPYASENQTCRDQEKEYYEPQHRICCSRCPPGTYVSAKCSRIRDTVCATCAENSYNEHWNYLTICQLCRPCDPVMGLEEIAPCTSKRKTQCRCQPGMFCAAWALECTHCELLSDCPPGTEAELKDEVGKGNNHCVPCKAGHFQNTSSPSARCQPHTRCENQGLVEAAPGTAQSDTTCKNPLEPLPPEMSGTMLM
notes: Injected at 20 µM in the Biacore assay; also called LTbR
B2: LT107 (P5C4.1) (antibody, V domains shown)
VH: QVQLKQSGPGLVQPSQNLSITCTVSGFSLTNYGIHWIRQPPGKGLEWLGVIWSGGSTDHNAAFISRLSISKDNSKSQVFFTMNSLEVDDTAIYYCARNRAYYRYEGGMDYWGQGTSVTVSS
VL: DIKMTQSPSSMYASLGERVTITCKASQDINTYLNWFQQKPGKSPMTLIYRADRLLDGVPSRFSGSGSGQDYSLTISSLEDEDMGIYYCQQYDDFPLTFGAGTKLELK
notes: Murine monoclonal antibody, kappa light chain; also called mAb LT107
B3: LT108 (P4F2.2) (antibody, V domains shown)
VH: QVQLKQSGPGLVQPSQSLSITCTVSGFSLTDYGIHWIRQPPGKGLEWLGVIWSGGSTDHNAVFTSRLNISKDNSKSQVFFKMNSLEPDDTAMYYCARNRAYYRYEGGMDYWGQGTSVTVSS
VL: DIKMTQSPSSMYASLGERVTITCKASQDINTYLNWFQQKPGKSPMTLIYRADRLLDGVPSRFSGSGSGQDYSLTISSLEDEDMGIYYCQQYDDFPLTFGAGTKLELK
notes: also called mAb LT108
B4: A1D5 (antibody, V domains shown)
VH: EVQLQQSGPELVKPGASVKISCKASGYSFTGYFMNWMRQSHGKSLEWIGRINPYNGDSFYNQKFKDKATLTVDKSSTTAHMELLSLTSEDSAVYYCGRGYDAMDYWGQGTSVTVSS
VL: DIQMTQTTSSLSASLGDRVTISCRASQDISNFLTWYQQKPDGTVKLLIYYTSKLHSGVPSRFSGSGSGTDYSLTISNLEPGDIATYYCQQVSKFPWTFGGGAKLEIK
notes: Murine monoclonal antibody, kappa light chain; also called mAb A1D5
B5: A0D9 (antibody, V domains shown)
VH: QVQLKQSGPGLVQPSQSLSITCTVSGFSLSTYGVHWVRQFPGKGLEWLGVIWRGGNTNYNAAFMSRLTISKDNSKSQVFFKMNSLQAKDTAIYYCVRNQIYDGYYDYAMDYWGQGTSVTVSS
VL: DIKMTQSPSSMYASLGERVTITCKASQDINTYLNWLQQKPGKSPKTLIYRANRLVDGVPSRFSGRGSGQDYSLTISSLEYEDVGIYYCLHYDAFPWTFGGGTKLEIK
notes: Murine monoclonal antibody, kappa light chain; also called mAb A0D9; AOD9
B6: Murine LTBR-mIgG1 (Fc fusion, UniProt P50284 31-223, looked up)
chain: QLVPPYRIENQTCWDQDKEYYEPMHDVCCSRCPPGEFVFAVCSRSQDTVCKTCPHNSYNEHWNHLSTCQLCRPCDIVLGFEEVAPCTSDRKAECRCQPGMSCVYLDNECVHCEEERLVLCQPGTEAEVTDEIMDTDVNCVPCKPGHFQNTSSPRARCQPHTRCEIQGLVEAAPGTSYSDTICKNPPEPGAMLL
notes: also called mLTBR-mIgG1; mLTβR-mIg; not shown: murine IgG1 part

Experiments:
[1] = target: T1, Soluble Flag-tagged LTα1β2; test: SPR (Biacore 3000), Flag-LTα1β2 captured on anti-Flag M2; LTβR binding site 1
[2] = target: T1, Soluble Flag-tagged LTα1β2; test: SPR (Biacore 3000), Flag-LTα1β2 captured on anti-Flag M2; LTβR binding site 2
[3] = target: T2, soluble recombinant human lymphotoxin …; test: cell-based or functional assay
[4] = target: T3, LTα3 (soluble homotrimer); test: ELISA on plate-coated LTα3 (1 or 5 ug/ml)
Protocol: For the LTa3 ELISA, microtiter plates were coated with LTα3 (1 or 5 ug/ml in PBS) then nonspecific binding sites were blocked with a 1% casein buffer. Samples (antibodies, receptor-Ig) were added and binding detected with HRP-conjugated anti-murine Ig antibodies. For assessment of ability of mAbs to block interaction between LTα3 and TNFR-hIg (p55), plates were coated with LTα3 and blocked as described above. Serial dilutions of antibodies were added to plate 30 minutes prior to TNFR-Ig addition. Binding of TNFR-hIg to plate-bound LTα3 was detected with an HPR conjugated anti-human Ig antibody.

[5] = target: T4, LTα1β2 on the surface of PMA-treated …; test: FACS, inhibition of biotin-LTβR-Ig (1 ug/ml) binding to PMA-treated II-23 cells
Protocol: (§1) II-23 cells were incubated with 50 ng/ml PMA for 4 hours at 37° C. 5% CO2. The cells were washed and 500,000 cells were added to each well of a 96-well plate. The antibody was diluted to the appropriate concentrations and added to the II-23 cells. After a 30 minute incubation period at 4° C., the biotin labeled LTβR-Ig is added to each well for a final concentration of 1 ug/ml. The cells are incubated at 4° C. for an additional 30 minutes, and then washed 3 times. Streptavidin-PE was diluted to 1/500 and added to each well and incubated for 1 hour at 4° C. The cells were washed once and read by FACS analysis. The mean fluorescence intensity is plotted versus antibody concentrations, and an IC50 is determined from a 4-parameter curve fit of the data.

[6] = target: T4, LTα1β2 on the surface of PMA-treated …; test: competition FACS (II-23 assay, as in FIG. 4): LT-expressing cells, varied antibody, labelled LTβR-Ig; MFI of bound LTβR-Ig
Protocol: as §1

[7] = target: T4, LTα1β2 on the surface of PMA-treated …; test: FACS, inhibition of biotin-LTβR-Ig binding to PMA-treated II-23 cells
Protocol: as §1

[8] = target: T5, human LT; test: reagent description; assay not stated

Binder | Kd [1] | Kd [2] | IC50 nM, inhibition of IL-8 release [3] | Maximum % Inhibition of IL-8 release [3] | binding result [4] | Maximum % Inhibition [5] | IC50 (read off the curve) [6] | potency in an II-23 assay (% blockade) [7] | fold lower affinity than for murine LT [8]
B1 | ~50 nM | ~1500 nM |  |  |  |  |  |  | 
B2 |  |  | 0.53 nM | 95% | no binding | 80% | ~0.03 mg/L |  | 
B3 |  |  | 1.3 nM |  | no binding |  |  |  | 
B4 |  |  | 2.5 nM | 94% | no binding | 92% | ~0.6 mg/L | > 90% | 
B5 |  |  | 1.67 nM | 94% | no binding | 92% | ~0.2 mg/L | > 90% | 
B6 |  |  |  |  |  |  |  |  | ~2 fold
